Assay [1] addresses T1, glutathione transferase P1-1 (GSTP1-1), native (UniProt P09211 1-210). Description: ELISA. In general terms: ELISA stands for enzyme-linked immunosorbent assay.
Assay [2] concerns the target T1, glutathione transferase P1-1 (GSTP1-1), …. Put plainly: ELISA. The source holds these as a separate data set.
The target is the same in assay [3]. Description: ELISA. The source holds these as a separate data set.
The target is the same in assay [4]. Description: ELISA. This is another data set of the same source.
The target is the same in assay [5]. Put plainly: ELISA. The source holds these as a separate data set.
Assay [6] addresses 'Oxidized' GSTP1-1 (oxidatively inactivated) (UniProt P09211 1-210, one intra-chain disulfide bond between cysteine 47 and 101). Description: ELISA.
Assay [7] deals with T1, glutathione transferase P1-1 (GSTP1-1), …. Description: ELISA. The source holds these as a separate data set.
For assay [8] the target is unchanged. Put plainly: ELISA. The source holds these as a separate data set.
For assay [9] the target is unchanged. Put plainly: other fluorescence titration.
Assay [10] has the same target. Put plainly: other fluorescence titration. The source holds these as a separate data set.

T1 sequence (P09211 whole entry): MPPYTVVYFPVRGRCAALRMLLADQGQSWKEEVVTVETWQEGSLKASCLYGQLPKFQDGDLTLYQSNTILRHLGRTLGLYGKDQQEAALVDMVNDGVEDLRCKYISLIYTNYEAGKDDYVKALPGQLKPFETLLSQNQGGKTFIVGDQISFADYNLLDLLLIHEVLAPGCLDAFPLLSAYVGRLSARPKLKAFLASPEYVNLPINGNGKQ
Chain of 'Oxidized' GSTP1-1 (oxidatively inactivated) (P09211 whole entry): as above

B1: His-tagged C-terminal domain of TRAF2 (residues 310–501) (domain or fragment, human, UniProt Q12933 310-501, looked up)
chain: DQDKIEALSSKVQQLERSIGLKDLAMADLEQKVLEMEASTYDGVFIWKISDFARKRQEAVAGRIPAIFSPAFYTSRYGYKMCLRIYLNGDGTGRGTHLSLFFVVMKGPNDALLRWPFNQKVTLMLLDQNNREHVIDAFRPDVTSSSFQRPVNDMNIASGCPLFCPVSKMEAKNSYVRDDAIFIKAIVDLTGL
By Kd is commonly meant the equilibrium constant for the complex coming apart. A lower Kd goes with tighter binding. With B1, the Kd in [1] is 490 nM; in [2], 2700 nM; in [3], 930 nM; in assay [4], not below 5 µM; in assay [5] it was 290 nM; in assay [6], 1700 nM. Besides, the Kd turned out to be 1200 nM in assay [7] and 2600 nM in assay [8].

B2: Dansylated TRAF2 (C-terminal domain, residues 310–501) (domain or fragment, human, UniProt Q12933 310-501, looked up)
chain: DQDKIEALSSKVQQLERSIGLKDLAMADLEQKVLEMEASTYDGVFIWKISDFARKRQEAVAGRIPAIFSPAFYTSRYGYKMCLRIYLNGDGTGRGTHLSLFFVVMKGPNDALLRWPFNQKVTLMLLDQNNREHVIDAFRPDVTSSSFQRPVNDMNIASGCPLFCPVSKMEAKNSYVRDDAIFIKAIVDLTGL
modifications: dansyl, mole ratio of dansyl/TRAF2 2 : 1; labelled residues not stated
Regarding B2, the Kd in [9] was 300 nM; in assay [10], 4.6 µM.
